# Test results taken from article PMC2885933 (The EMBO Journal, 2010).
# T1: ORF57-6xHis (Kaposi's sarcoma-associated herpesvirus …, UniProt Q2HR75 1-455)
# T1 sequence: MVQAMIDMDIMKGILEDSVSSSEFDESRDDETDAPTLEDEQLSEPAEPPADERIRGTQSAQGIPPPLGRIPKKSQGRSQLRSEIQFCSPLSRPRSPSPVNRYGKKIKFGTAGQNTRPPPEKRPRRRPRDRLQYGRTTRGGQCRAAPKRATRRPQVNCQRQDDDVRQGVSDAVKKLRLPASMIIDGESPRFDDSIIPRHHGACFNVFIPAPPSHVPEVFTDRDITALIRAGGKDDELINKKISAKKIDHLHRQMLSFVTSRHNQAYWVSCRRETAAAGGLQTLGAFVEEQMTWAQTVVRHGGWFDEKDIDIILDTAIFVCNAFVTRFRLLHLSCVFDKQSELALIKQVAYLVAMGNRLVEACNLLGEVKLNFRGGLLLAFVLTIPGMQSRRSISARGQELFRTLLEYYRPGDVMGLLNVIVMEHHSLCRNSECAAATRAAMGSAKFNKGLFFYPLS
# Target: T1, ORF57-6xHis
# Test: pull-down
binder,measurement,value
GST-PYM (natural protein) not shown,binding result,binds
